# Experimental data published in patent US20180195086.
# Test system: T1, piggyBac transposase (Trichoplusia ni)
# T1 sequence: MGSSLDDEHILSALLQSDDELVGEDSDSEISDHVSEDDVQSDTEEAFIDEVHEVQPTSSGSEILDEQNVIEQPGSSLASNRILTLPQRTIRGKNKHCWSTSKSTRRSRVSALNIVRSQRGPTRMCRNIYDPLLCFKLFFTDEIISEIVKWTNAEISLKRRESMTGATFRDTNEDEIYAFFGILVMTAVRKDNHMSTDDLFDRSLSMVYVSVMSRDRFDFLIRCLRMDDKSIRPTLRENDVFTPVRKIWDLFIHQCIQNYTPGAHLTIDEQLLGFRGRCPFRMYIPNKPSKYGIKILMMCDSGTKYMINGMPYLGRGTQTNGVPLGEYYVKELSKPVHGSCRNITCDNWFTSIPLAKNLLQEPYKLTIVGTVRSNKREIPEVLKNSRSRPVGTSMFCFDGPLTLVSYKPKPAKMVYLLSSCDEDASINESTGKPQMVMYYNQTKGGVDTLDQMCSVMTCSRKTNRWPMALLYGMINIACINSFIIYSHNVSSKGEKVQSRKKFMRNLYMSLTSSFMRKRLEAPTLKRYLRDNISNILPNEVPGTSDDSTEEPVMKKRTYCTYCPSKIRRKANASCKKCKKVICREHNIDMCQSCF
# Experiment: cell_activity
# Settings: RFP+ HEK-293 at 28 days
sequence,measurement,value
CCCTAGAAAGATAGTCTGCGTAAAATTGACGCATGCATGCGTCAATTTTACGCATGATTATCTTTAACGTACGTCACAATATGATTATCTTTCTAGGG (double strand),activity,0.72%
